Laboratory results: US20170158776A1, “TREATMENT OF LUNG CANCER USING A COMBINATION OF AN ANTI-PD-1 ANTIBODY AND ANOTHER ANTI-CANCER AGENT” (Bristol-Myers Squibb Company, priority 2014, published 2017)
Entries after “also recorded” stand apart in the source; their conditions may differ. Marks after values point to notes of the source that are not given here.

Columns and labels:
patients with NSCLC [1] = experiment: Nivolumab monotherapy arm (Arm F), efficacy; type: in vivo, human
Method: (§1) One arm was developed to test the effect of nivolumab monotherapy on NSCLC. Patients were treated with 3 mg/kg nivolumab (nivo) q2w (once every 2 weeks).

[2] = test system: pts with advanced NSCLC after first-line PT-based chemotherapy; experiment: Phase 1: switch to nivolumab maintenance as monotherapy or with bevacizumab, efficacy (RECIST 1.1); type: in vivo, human
Method: Pts with no progression within 42 days of completing ≧4 cycles first-line PT-based chemotherapy (±BEV) were assigned to either nivolumab (N) 5 mg/kg IV Q3W+BEV 15 mg/kg IV Q3W (non-squamous [non-sq] pts only; n=12) or N 3 mg/kg IV Q2W monotherapy (sq arm [n===8] or non-sq arm [n=13]) until progression/unacceptable toxicity (treatment beyond progression allowed based on protocol-defined criteria). ORR was evaluated using RECIST 1.1.

patients with NSCLC [3] = experiment: Nivolumab monotherapy arm (Arm F), safety; type: in vivo, human; details: 3 mg/kg q2w
Method: as §1

PD-1 = target: T1, PD-1 (Homo sapiens, UniProt Q15116); details: 15 subjects, 0.3 mg/kg to 10 mg/kg, across all doses, cited from earlier work
T1 construct: Receptor-occupancy data from 15 subjects who received 0.3 mg/kg to 10 mg/kg dosing with nivolumab; endogenous in cells

[4] = test system: heavily pretreated patients with advanced NSCLC; experiment: CA209-003 phase 1: nivolumab monotherapy, safety

T1 sequence (Q15116 25-288): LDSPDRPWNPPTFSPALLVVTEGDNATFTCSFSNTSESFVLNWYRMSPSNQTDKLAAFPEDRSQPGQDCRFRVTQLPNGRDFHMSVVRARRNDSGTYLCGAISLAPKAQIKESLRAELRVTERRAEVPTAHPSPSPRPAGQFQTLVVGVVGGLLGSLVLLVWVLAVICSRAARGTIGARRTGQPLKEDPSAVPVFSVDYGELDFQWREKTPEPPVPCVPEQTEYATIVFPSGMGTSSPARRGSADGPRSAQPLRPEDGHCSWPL

For nivolumab, the “Best Overall Response: CR” value (patients with NSCLC [1]; Arm F (n = 52)) was 4 (8%), the “Best Overall Response: PD” value (patients with NSCLC [1]; Arm F (n = 52)) was 20 (38%) and the “Best Overall Response: PR” value (patients with NSCLC [1]; Arm F (n = 52)) was 8 (15%). For the same substance, the “Best Overall Response: SD” value (patients with NSCLC [1]; Arm F (n = 52)) was 14 (27%), the “Best Overall Response: Unable to determine” value (“Best Overall Response: Unable” below) (patients with NSCLC [1]; Arm F (n = 52)) was 6 (12%) and the “Best Overall Response: Unconfirmed PR” value (patients with NSCLC [1]; Arm F (n = 52)) was 0. For the same substance, the “Confirmed DCR” value (patients with NSCLC [1]; Arm F (n = 52)) was 26 (50%), the “Confirmed ORR” value (patients with NSCLC [1]; Arm F (n = 52)) was 12 (23%) and the “Overall DCR” value (patients with NSCLC [1]; Arm F (n = 52)) was 26 (50%). The “Overall ORR” value (patients with NSCLC [1]; Arm F (n = 52)) was 12 (23%), the “>80% target lesion reduction at 18 wks” value (patients with NSCLC [1]; Arm F N = 52) was 3 (6%) and the “Median OS” value (patients with NSCLC [1]; Arm F N = 52) was 22.6 mos. The “Median PFS” value (patients with NSCLC [1]; Arm F N = 52) was 15.6 wks, the Number of responders (patients with NSCLC [1]; Arm F N = 52) was 12 (23%) and the “OS rate at 12 months” value (patients with NSCLC [1]; Arm F N = 52) was 74%. The Ongoing responder (patients with NSCLC [1]; Arm F N = 52) was 8 (67%), the “PFS rate at 24 weeks” value (patients with NSCLC [1]; Arm F N = 52) was 41% and the “Best Overall Response: CR” value (patients with NSCLC [1]; Non-squamous (n = 39)) was 3 (8%). The “Best Overall Response: PD” value (patients with NSCLC [1]; Non-squamous (n = 39)) was 7 (18%), the “Best Overall Response: PR” value (patients with NSCLC [1]; Non-squamous (n = 39)) was 7 (18%) and the “Best Overall Response: SD” value (patients with NSCLC [1]; Non-squamous (n = 39)) was 0. The “Best Overall Response: Unable” value (patients with NSCLC [1]; Non-squamous (n = 39)) was 6 (15%), the “Best Overall Response: Unconfirmed PR” value (patients with NSCLC [1]; Non-squamous (n = 39)) was 0 and the “Confirmed DCR” value (patients with NSCLC [1]; Non-squamous (n = 39)) was 18 (46%). For the same substance, the “Confirmed ORR” value (patients with NSCLC [1]; Non-squamous (n = 39)) was 10 (26%), the “Overall DCR” value (patients with NSCLC [1]; Non-squamous (n = 39)) was 18 (46%) and the “Overall ORR” value (patients with NSCLC [1]; Non-squamous (n = 39)) was 10 (26%). The “Best Overall Response: CR” value (patients with NSCLC [1]; Squamous (n = 13)) was 1 (8%), the “Best Overall Response: PD” value (patients with NSCLC [1]; Squamous (n = 13)) was 5 (38%) and the “Best Overall Response: PR” value (patients with NSCLC [1]; Squamous (n = 13)) was 1 (8%). For the same substance, the “Best Overall Response: SD” value (patients with NSCLC [1]; Squamous (n = 13)) was 6 (46%), the “Best Overall Response: Unable” value (patients with NSCLC [1]; Squamous (n = 13)) was 0 and the “Best Overall Response: Unconfirmed PR” value (patients with NSCLC [1]; Squamous (n = 13)) was 0. For the same substance, the “Confirmed DCR” value (patients with NSCLC [1]; Squamous (n = 13)) was 8 (62%), the “Confirmed ORR” value (patients with NSCLC [1]; Squamous (n = 13)) was 2 (15%) and the “Overall DCR” value (patients with NSCLC [1]; Squamous (n = 13)) was 8 (62%). For the same substance, the “Overall ORR” value (patients with NSCLC [1]; Squamous (n = 13)) was 2 (15%), the “Stable disease as best overall response” value ([2]; all pts of the treatment) was 48% and the “Median PFS” value ([2]; non-sq pts) was 21.4 weeks. For the same substance, the “Stable disease as best overall response” value ([2]; non-sq pts) was 46%, the “Median PFS” value ([2]; sq pts) was 16.0 weeks and the “Stable disease as best overall response” value ([2]; sq pts) was 50%. The “Median OS” value ([2]; switch maintenance) was “not reached”, the ORR ([2]; switch maintenance, RECIST 1.1) was 10% and the “Arthralgia, All Gr” value (patients with NSCLC [3]; n = 52) was 5 (9.6) n (%). For the same substance, the “Arthralgia, GR ¾” value (patients with NSCLC [3]; n = 52) was 0 n (%), the “Constipation, All Gr” value (patients with NSCLC [3]; n = 52) was 3 (5.8) n (%) and the “Constipation, GR ¾” value (patients with NSCLC [3]; n = 52) was 0 n (%). For the same substance, the “Diarrhea, All Gr” value (patients with NSCLC [3]; n = 52) was 6 (11.5) n (%), the “Diarrhea, GR ¾” value (patients with NSCLC [3]; n = 52) was 1 (1.9) n (%) and the “Fatigue, All Gr” value (patients with NSCLC [3]; n = 52) was 15 (28.8) n (%). The “Fatigue, GR ¾” value (patients with NSCLC [3]; n = 52) was 0 n (%), the “Hypothyriodism, All Gr” value (patients with NSCLC [3]; n = 52) was 3 (5.8) n (%) and the “Hypothyriodism, GR ¾” value (patients with NSCLC [3]; n = 52) was 0 n (%). The “Nausea, All Gr” value (patients with NSCLC [3]; n = 52) was 7 (13.5) n (%), the “Nausea, GR ¾” value (patients with NSCLC [3]; n = 52) was 0 n (%) and the “Pneumonitis, All Gr” value (patients with NSCLC [3]; n = 52) was 3 (5.8) n (%). For the same substance, the “Pneumonitis, GR ¾” value (patients with NSCLC [3]; n = 52) was 1 (1.9) n (%), the “Pruritus, All Gr” value (patients with NSCLC [3]; n = 52) was 6 (11.5) n (%) and the “Pruritus, GR ¾” value (patients with NSCLC [3]; n = 52) was 0 n (%). For the same substance, the “Rash, All Gr” value (patients with NSCLC [3]; n = 52) was 10 (19.2) n (%), the “Rash, GR ¾” value (patients with NSCLC [3]; n = 52) was 2 (3.8) n (%) and the “Total patients with an event, All Gr” value (patients with NSCLC [3]; n = 52) was 37 (71.2) n (%). The “Total patients with an event, GR ¾” value (patients with NSCLC [3]; n = 52) was 10 (19.2) n (%), the “Vomiting, All Gr” value (patients with NSCLC [3]; n = 52) was 3 (5.8) n (%) and the “Vomiting, GR ¾” value (patients with NSCLC [3]; n = 52) was 0 n (%). The “Discontinued subjects: Toxicity” value (patients with NSCLC [3]; 52 treated) was 6 (12%), the “mean plateau PD-1 occupancy” value (PD-1; range 59% to 81%) was 72% and the “mean PD-1 occupancy rate” value (PD-1; range 70% to 97%) was 85%. For the same substance, the “Patients with any treatment-related select AE, Any Grade” value ([4]; N = 129) was 41 (53) % (n), the “Patients with any treatment-related select AE, Grade 3-4” value ([4]; N = 129) was 5 (6) % (n) and the “select AE Endocrinopathies, Any Grade” value ([4]; N = 129) was 6 (8) % (n). For the same substance, the “select AE Endocrinopathies, Grade 3-4” value ([4]; N = 129) was 0 % (n), the “select AE Gastrointestinal, Any Grade” value ([4]; N = 129) was 12 (15) % (n) and the “select AE Gastrointestinal, Grade 3-4” value ([4]; N = 129) was 1 (1) % (n). For the same substance, the “select AE Hepatic, Any Grade” value ([4]; N = 129) was 5 (6) % (n), the “select AE Hepatic, Grade 3-4” value ([4]; N = 129) was 1 (1) % (n) and the “select AE Infusion reaction, Any Grade” value ([4]; N = 129) was 4 (5) % (n). For the same substance, the “select AE Infusion reaction, Grade 3-4” value ([4]; N = 129) was 1 (1) % (n), the “select AE Pulmonary, Any Grade” value ([4]; N = 129) was 7 (9)^c % (n) and the “select AE Pulmonary, Grade 3-4” value ([4]; N = 129) was 2 (3) % (n). For the same substance, the “select AE Renal, Any Grade” value ([4]; N = 129) was 3(4) % (n), the “select AE Renal, Grade 3-4” value ([4]; N = 129) was 0 % (n) and the “select AE Skin, Any Grade” value ([4]; N = 129) was 16 (20) % (n). The “select AE Skin, Grade 3-4” value ([4]; N = 129) was 0 % (n), the decreased appetite ([4]; NSCLC cohort) was 12% and the diarrhea ([4]; NSCLC cohort) was 10%. For the same substance, the fatigue ([4]; NSCLC cohort) was 24%, the “Rate of grade 3-4 treatment-related AEs” value ([4]; NSCLC cohort (n = 129)) was 14% and the “patients with grade 3-5 treatment-related pneumonitis” value ([4]; NSCLC cohort, 4 patients) was 3%. For the same substance, the “patients with treatment-related pulmonary events” value ([4]; NSCLC cohort, 12 patients) was 9%, the treatment-related deaths ([4]; all associated with pneumonitis) was “Three” and the “Rate of grade 3-4 treatment-related AEs” value ([4]; overall study patient population (N = 306)) was 17%. The maximum tolerated dose ([4]; up to 10 mg/kg every two weeks) was “without reaching the maximum tolerated does (MTD); also recorded: A maximum tolerated dose was not reached”.
